Measured values reported in patent publication US20140377282A1 (APEXIGEN, published 2014).

T1: rabbit Fc-fusion protein of human VEGFR3 (human; rabbit, UniProt P35916 25-775, limits assumed)
T1 construct: not shown: rabbit immunoglobulin Fc
T1 sequence (looked up): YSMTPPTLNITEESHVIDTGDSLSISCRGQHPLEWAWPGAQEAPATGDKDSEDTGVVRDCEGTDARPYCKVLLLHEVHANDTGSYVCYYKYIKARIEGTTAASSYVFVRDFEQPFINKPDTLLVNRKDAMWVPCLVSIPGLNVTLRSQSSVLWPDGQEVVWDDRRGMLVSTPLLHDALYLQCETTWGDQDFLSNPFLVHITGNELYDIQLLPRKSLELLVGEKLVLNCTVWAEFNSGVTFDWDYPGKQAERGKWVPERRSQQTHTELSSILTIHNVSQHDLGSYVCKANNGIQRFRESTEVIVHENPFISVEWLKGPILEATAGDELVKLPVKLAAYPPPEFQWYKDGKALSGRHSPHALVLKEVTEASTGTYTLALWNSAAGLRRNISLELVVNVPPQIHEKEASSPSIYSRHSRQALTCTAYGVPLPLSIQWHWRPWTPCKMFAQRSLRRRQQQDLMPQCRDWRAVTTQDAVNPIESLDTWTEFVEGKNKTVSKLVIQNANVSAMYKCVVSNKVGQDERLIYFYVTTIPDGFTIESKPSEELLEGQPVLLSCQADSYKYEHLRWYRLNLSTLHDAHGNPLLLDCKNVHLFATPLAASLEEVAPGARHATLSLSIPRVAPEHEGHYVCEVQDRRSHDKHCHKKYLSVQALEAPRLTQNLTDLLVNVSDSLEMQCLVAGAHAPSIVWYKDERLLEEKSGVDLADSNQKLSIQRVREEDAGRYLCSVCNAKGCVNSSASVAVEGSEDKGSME


How the values were obtained:
recombinant human KDR [1] = biological target: T2, recombinant human KDR (human, UniProt P35968 20-764, limits assumed); experiment: competition ELISA: APX004 pre-incubated with 5 µg/ml recombinant human KDR, then on coated VEGF-A; bound KDR detected
T2 construct: also called VEGFR2
Experimental: (§1) An ELISA-based KDR-VEGF binding assay was developed and used to assess the potency of APX004 at blocking KDR binding to VEGF. A total of 2 μg/ml VEGF was coated on ELISA plates. APX004, the parental rabbit antibody R-36 or IgG1 isotype control antibody were pre-incubated with 5 μg/ml recombinant human KDR before being transferred to the VEGF-A coated ELISA plates. KDR bound to immobilized VEGF was detected by a mouse anti-KDR monoclonal antibody, followed by the addition of goat anti-mouse IgG conjugated with alkaline phosphatase (Fisher Scientific/Pierce Biotechnology, Rockford, Ill.). ELISA plates were developed with p-nitrophenyl phosphate substrate and absorbance at 405 nm was recorded. All experiments were performed in triplicate.

recombinant human KDR [2] = biological target: T2, recombinant human KDR; experiment: method not stated
[3] = biological target: T3, rabbit Fc-fusion protein of human VEGFR1 (human; rabbit, UniProt P17948 27-758, limits assumed); experiment: direct ELISA: 1 µg/ml protein coated, 1 µg/ml APX004, goat anti-human HRP-conjugated IgG
T3 construct: also called Flt-1; not shown: rabbit immunoglobulin Fc
Experimental: (§2) Binding selectivity of APX004 was assessed by direct ELISA to VEGFR family proteins. A total of 1 μg/ml of rabbit Fc-fusion protein of human KDR, mouse KDR, human VEGFR1, human VEGFR3, human OX40L and human VEGF were coated on ELISA plates followed by incubation with 1 μg/ml of APX004. Bound APX004 was detected using goat anti-human HRP-conjugated IgG.

[4] = biological target: T4, rabbit Fc-fusion protein of mouse KDR (mouse; rabbit, UniProt P35918 20-762, limits assumed); experiment: as above
T4 construct: not shown: rabbit immunoglobulin Fc
Experimental: as §2

[5] = biological target: T5, human VEGF (coated in the selectivity ELISA) (human, UniProt P15692-4 27-191, limits assumed); experiment: as above
T5 construct: the sentence lists it last after 'rabbit Fc-fusion protein of'
Experimental: as §2

[6] = biological target: T1, rabbit Fc-fusion protein of human VEGFR3; experiment: as above
Experimental: as §2

mouse KDR = biological target: T6, mouse KDR (mouse, UniProt P35918 20-762, limits assumed); experiment: restated in the summary of the Examples
T6 construct: also called murine KDR

recombinant human KDR [7] = biological target: T2, recombinant human KDR; experiment: inhibition of KDR binding to VEGF, ligand-receptor binding assay
recombinant human KDR [8] = biological target: T2, recombinant human KDR; experiment: ELISA: antibody pre-incubated with 5 µg/ml recombinant human KDR, then transferred to a VEGF-coated plate; KDR bound to VEGF detected (OD405); blocked ligand VEGF
Experimental: as §1

T2 sequence (P35968 20-764 limits assumed): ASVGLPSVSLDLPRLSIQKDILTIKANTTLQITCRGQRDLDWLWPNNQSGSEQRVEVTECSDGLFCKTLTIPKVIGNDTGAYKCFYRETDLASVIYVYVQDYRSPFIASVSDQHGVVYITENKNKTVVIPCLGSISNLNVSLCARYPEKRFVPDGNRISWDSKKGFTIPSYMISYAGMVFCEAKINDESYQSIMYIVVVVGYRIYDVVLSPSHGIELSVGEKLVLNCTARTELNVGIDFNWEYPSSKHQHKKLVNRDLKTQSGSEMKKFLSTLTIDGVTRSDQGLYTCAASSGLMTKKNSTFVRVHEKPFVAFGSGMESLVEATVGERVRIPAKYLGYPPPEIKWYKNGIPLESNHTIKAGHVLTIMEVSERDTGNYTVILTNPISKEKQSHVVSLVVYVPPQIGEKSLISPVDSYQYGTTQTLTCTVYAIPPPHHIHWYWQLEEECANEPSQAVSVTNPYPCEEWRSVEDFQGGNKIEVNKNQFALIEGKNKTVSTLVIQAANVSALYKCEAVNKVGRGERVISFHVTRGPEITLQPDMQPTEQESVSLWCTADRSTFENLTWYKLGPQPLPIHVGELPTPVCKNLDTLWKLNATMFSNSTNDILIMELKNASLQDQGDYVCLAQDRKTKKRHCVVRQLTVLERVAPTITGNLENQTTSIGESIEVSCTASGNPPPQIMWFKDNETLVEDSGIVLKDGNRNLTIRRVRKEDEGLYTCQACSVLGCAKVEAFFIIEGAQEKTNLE
T6 sequence (P35918 20-762 limits assumed): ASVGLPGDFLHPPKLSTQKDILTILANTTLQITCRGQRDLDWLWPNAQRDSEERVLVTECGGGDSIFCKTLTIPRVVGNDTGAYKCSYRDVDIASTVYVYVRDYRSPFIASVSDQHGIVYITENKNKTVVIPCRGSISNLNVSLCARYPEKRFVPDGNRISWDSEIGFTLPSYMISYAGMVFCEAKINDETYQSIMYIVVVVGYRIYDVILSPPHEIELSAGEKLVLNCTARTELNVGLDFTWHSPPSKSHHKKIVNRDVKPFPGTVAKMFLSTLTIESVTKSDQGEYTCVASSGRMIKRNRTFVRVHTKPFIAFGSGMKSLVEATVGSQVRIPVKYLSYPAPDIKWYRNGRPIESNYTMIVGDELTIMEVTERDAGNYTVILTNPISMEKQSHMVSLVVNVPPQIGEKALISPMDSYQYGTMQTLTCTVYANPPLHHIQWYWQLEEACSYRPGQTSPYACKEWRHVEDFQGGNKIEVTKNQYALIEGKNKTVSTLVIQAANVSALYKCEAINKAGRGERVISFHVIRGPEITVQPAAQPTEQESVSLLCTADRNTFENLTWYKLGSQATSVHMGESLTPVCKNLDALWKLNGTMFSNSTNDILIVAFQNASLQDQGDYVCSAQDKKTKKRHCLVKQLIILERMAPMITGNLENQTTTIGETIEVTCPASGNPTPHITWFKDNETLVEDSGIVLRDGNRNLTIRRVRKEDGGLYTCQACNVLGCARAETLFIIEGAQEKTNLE
T4 sequence (P35918 20-762 limits assumed): as above
T3 sequence (P17948 27-758 limits assumed): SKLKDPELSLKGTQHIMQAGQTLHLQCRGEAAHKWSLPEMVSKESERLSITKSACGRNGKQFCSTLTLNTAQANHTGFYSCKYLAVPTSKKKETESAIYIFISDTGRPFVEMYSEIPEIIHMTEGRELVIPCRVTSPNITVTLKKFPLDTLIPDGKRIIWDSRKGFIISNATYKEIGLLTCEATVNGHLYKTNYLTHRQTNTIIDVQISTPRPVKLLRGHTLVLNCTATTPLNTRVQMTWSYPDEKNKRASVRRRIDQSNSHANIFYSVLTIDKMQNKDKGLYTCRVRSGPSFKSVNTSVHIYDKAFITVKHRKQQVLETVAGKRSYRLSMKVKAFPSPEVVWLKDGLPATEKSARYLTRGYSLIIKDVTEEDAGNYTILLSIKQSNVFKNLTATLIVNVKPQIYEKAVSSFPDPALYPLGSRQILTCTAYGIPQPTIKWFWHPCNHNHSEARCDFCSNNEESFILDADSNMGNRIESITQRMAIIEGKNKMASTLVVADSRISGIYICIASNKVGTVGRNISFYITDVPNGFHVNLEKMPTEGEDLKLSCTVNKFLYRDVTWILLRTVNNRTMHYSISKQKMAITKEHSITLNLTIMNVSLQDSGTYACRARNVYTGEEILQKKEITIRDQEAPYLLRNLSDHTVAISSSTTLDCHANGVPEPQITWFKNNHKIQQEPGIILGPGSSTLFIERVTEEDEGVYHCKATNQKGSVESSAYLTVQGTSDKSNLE
T5 sequence (P15692 other isoform, or with tags, fused parts or gaps limits assumed): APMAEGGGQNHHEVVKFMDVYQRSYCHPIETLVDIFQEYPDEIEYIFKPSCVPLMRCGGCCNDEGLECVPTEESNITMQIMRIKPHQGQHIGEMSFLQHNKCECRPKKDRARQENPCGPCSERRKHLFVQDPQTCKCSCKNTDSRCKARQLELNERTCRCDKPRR

| Binder | IC50 (recombinant human KDR [7]) [nM] | other results |
| --- | --- | --- |
| APX004 (humanized clone 36 anti-KDR antibody) (antibody, human IgG1, kappa, V domains shown, also called humanized 36) VH: EVQLVESGGGLVQPGGSLRLSCAASGFDLSSYAMSWVRQAPGKGLEWVGIIGSGGSTYYASWAKGRFTISKDSSKNTVYLQMNSLRAEDTAVYFCARVLWAGSVAYAYHNIWGPGTLVTVSS VL: DIQMTQSPSSLSASVGDRVTINCQASEELGSNLAWYQQKPGKPPKLLIYSASTLASGVPSRFSGSGSGTDYTLTISSLQPEDFATYYCQYTYFGSSYLGAFGGGTKVEIKR | – | IC50 (recombinant human KDR [1]): 2.6 nM; Kd (recombinant human KDR [2]): 0.053 nM; binding result [3]: no binding (tested: 1 µg/ml); binding result [4]: binds; binding result [5]: no binding (tested: 1 µg/ml); binding result [6]: no binding (tested: 1 µg/ml); binding result (mouse KDR): binds |
| clone 36 rabbit anti-KDR antibody (antibody, V domains shown, rabbit IgG, recombinantly expressed in 293-6E cells; also called R-36; parental rabbit monoclonal antibody 36) VH: QSVEESGGRLVTPGTPLTLTCTVSGIDLNNYAMSWVRQAPGKGLEWIGIIGSSGSIFYASWAKGRITISKTSTTVDLKFTSLTTEDTATYFCARVLWAGSVAYAYHNIWGPGTLVTVSS VL: DPVMTQTPASVSEPVGGTVTINCQASEELGSNLAWYQQKPGQPPKLLIYSASTLASGVPSRFKGSGSGTEYTLTISDLECADAATYYCQYTYFGSSYLGAFGGGTEVVVK | 6.25 | IC50 (recombinant human KDR [8]): 3.1 nM |
| rabbit anti-KDR antibody clone 43 (antibody, V domains shown, rabbit monoclonal antibody, recombinantly expressed and purified for characterization) VH: QSVEESGGRLVTPGTPLTLTCTVSGFSLSSYAMSWFRQAPGKGLEWIGLIRSSGATYYASWAKGRFTISKASTTVDLKFTSPTTEDTATYFCARVLWPGDIAYAYHNIWGPGTLVTVSS VL: DLVMTQTPSPVSAAVGGTVTINCQASEEIGGNLAWYQQKPGQPPKLLIYSASTLTSGVPSRFKGSGSGTEYTLTISDLECADAATYYCQYTYYGFSYVGPFGGGTEVVVK | 7.54 | – |
| rabbit anti-KDR antibody clone 81 (antibody, V domains shown, rabbit monoclonal antibody, recombinantly expressed and purified for characterization) VH: QSVEESGGRLVTPGTPLTLTCTVSGFSLSTYAMSWFRQAPGKGLEWIGLIRSSGATYYASWAKGRFTISKASTTVDLKFTSPTTEDTATYFCARVLWPGDIAYAYHNIWGPGTLVTVSS VL: DLVMTQTPSPVSAAVGGTVTINCQASEEIGGNLAWYQQKPGQPPKLLIYSASTLTSGVPSRFKGSGSGTEYTLTINDLECADAATYYCQYPYYGFSYVGPFGGGTEVVVK | 4.56 | – |
| rabbit anti-KDR antibody clone 83 (antibody, V domains shown, rabbit monoclonal antibody, recombinantly expressed and purified for characterization) VH: QSLEESGGRLVTPGTPLTLTCTVSGIDLSAYAMSWVRQAPGKGLEWIGLIRSSGATYYASWAKGRFTISKTSTTVDLKMTSPTTEDTATYFCARVLWPGEIAYAYHNIWGPGTLVTVSS VL: DVVMTQTPASVSEPVGGTVTINCQASEEIGGNLAWYQQKPGQPPKLLIYSASSLTSGVPSRFKGSESGTEYTLTISDLECADAATYYCQYSYYGFNYVGPFGGGTEVVVK | 9.77 | – |
| rabbit anti-KDR antibody clone 92 (antibody, V domains shown, rabbit monoclonal antibody, recombinantly expressed and purified for characterization) VH: QSVEESGGRLVTPGTPLTLTCTVSGFSLSSNAMSWVRQAPGEGLEWIGTISSSGSTYYATWVKGRFTISKTSTTVDLKMTSLTAADTATYFCARGDDDVSDYFYYFPIWGPGTLVTVSS VL: AVVLTQTASPVSGAVGGTVTIKCQASQNIYNNLAWYRQKPGQPPKLLIYAASKLASGVPSRFSGSRSGTQFTLSISDLECADAATYYCQSYYFDSSSTDAAFGGGTEVVVK | 32.9 | – |
| rabbit anti-KDR antibody clone 15 (antibody, V domains shown, rabbit monoclonal antibody, recombinantly expressed and purified for characterization) VH: QSLEESGGDLVKPGTSLTLTCTASGFSFSARHFMYWVRQAPGKGLEWIGCIDIGSGSTYYTSWAKDRFTISKPSSTTVTLQMTSLTAADTATYFCARSSGYPYYFTLWGPGTLVTVSS VL: AVVLTQTTSSVSADVGGTVTIKCQASENIYSLLAWYQQKPGQPPKLLIYSASDLASGVPSRFSGSGFGTEFTLTISDLECADAATYHCQSYYYSGSSADTGAFGGGTEVVVK | 17.5 | – |
| rabbit anti-KDR antibody clone 23 (antibody, V domains shown, rabbit monoclonal antibody, recombinantly expressed and purified for characterization) VH: QSVEESGGRLVTPGTPLTLTCTVSGFSLSSNAMSWVRQAPGEGLEWIGTISSSGSTYYATWVKGRFTISKTSTTVDLKMTSLTAADTATYFCARGDDDVSDYFYYFPIWGPGTLVTVSS VL: AVVLTQTASPVSGAVGGTVTIKCQASQNIYNNLAWYRQKPGQPPKLLIYAASKLASGVPSRFSGSRSGTQFTLSISDLECADAATYYCQSYYFDSSSTDAAFGGGTEVVVK | 21.4 | – |
| rabbit anti-KDR antibody clone 24 (antibody, V domains shown, rabbit monoclonal antibody, recombinantly expressed and purified for characterization) VH: QSVEESGGRLVTPGTPLTLTCTVSGFSLSSNAMSWVRQAPGEGLEWIGTISSSGSTYYATWVKGRFTISKTSTTVDLKMTSLTAADTATYFCARGDDDVSDYFYYFPIWGPGTLVTVSS VL: AVVLTQTASPVSGAVGGTVTIKCQASQNIYNNLAWYRQKPGQPPKLLIYAASKLASGVPSRFSGSRSGTQFTLSISDLECADAATYYCQSYYFDSSSTDAAFGGGTEVVVK | 19.8 | – |
| rabbit anti-KDR antibody clone 27 (antibody, V domains shown, rabbit monoclonal antibody, recombinantly expressed and purified for characterization) VH: QSVEESGGRLVTPGTPLTLTCTASGFALNDFAMSWVRQAPGKGLEWIGMIASSGNTFYASWAKGRFTISKTSTTVDLKFTSPTTEDTATYFCARVLWPGYIAYAYHNIWGPGTLVTVSS VL: DPVLTQTPASVSAVVGGTVTINCQTSEDIASNLAWYQQKSGQRPKLLIYEASKLASGVPSRFKGSGSGTEYTLTISDLECADAATYYCQYTYYGSSYLGAFGGGTEVVVK | 5.95 | – |
